The values below come from patent US20050048066A1, “Identification of potential immunodominant acetylcholine receptor alpha subunit” (priority 2000, published 2005).

Experiment [1] addresses solubilized HLA-DR3 (a mix of DRB1*0301 and DRB3*0101) (human). The experiment is described as follows: DELFIA competitive binding vs biotinylated MBP 84-102, solubilized HLA-DR3, pH 5.5.
Experiment [2] deals with solubilized HLA-DR2 (a mix of DRB1*1501 and DRB5*0101) (human). Put plainly: competition binding.
Experiment [3] concerns the target solubilized HLA-DR3 (a mix of DRB1*0301 and DRB3*0101) (human). Put plainly: competition binding. Set-up: unit not given beside the values.
Experiment [4] shares this target. The experiment is described as follows: competition binding.
The target in experiment [5] is solubilized HLA-DR2 (a mix of DRB1*1501 and DRB5*0101) (human). The experiment is described as follows: DELFIA competitive binding vs biotinylated MBP 84-102, solubilized HLA-DR2, pH 5.5.

A word on the IC50: it is the concentration that gives 50% inhibition.

In experiment [1], “AChRα peptide 204-217 (from UniProt P02708 224-237)” yielded a half-inhibitory concentration (IC50) of 71.3 µM.

Take “AChRα peptide 310-327 (from UniProt P02708 330-347)”: in experiment [2], the IC50 came out at 4.19 µM. Turning to “AChRα peptide 7-22 (from UniProt P02708 27-42)”, the IC50 is 6.15 µM in experiment [1] and 6153 ? in experiment [3].

Consider “AChRα peptide 419-437 (from UniProt P02708 439-457)”, for which, in experiment [4], the IC50 worked out at 48.9 µM. Turning to “AChRα peptide 36-49 (from UniProt P02708 56-69)”, the IC50 in experiment [1] was 7.3 µM; in experiment [5], 11 µM; in experiment [3] it was 7299 ?. Consider “AChRα peptide 145-163 (from UniProt P02708 165-183)”, for which the half-inhibitory concentration (IC50) in experiment [3] is 2002 ?; in experiment [4], 2 µM. Turning to “AChRα peptide 195-212 (from UniProt P02708 215-232)”, the IC50 in experiment [3] is 6036 ?; in experiment [4] it was 6.04 µM; in experiment [2] it was 36.8 µM. Regarding “AChRα peptide 113-126 (from UniProt P02708 133-146)”, in experiment [4], the IC50 amounted to 73 µM.
